B1: 2-aminoethanethiol dioxygenase (ADO), full-length human, N-terminally His-tagged and biotinylated (pQE80L-Navi-ADO) [modified: biotin (biotinylated during expression, 0.2 mM biotin added); biotin (biotinylated during … (parent)
chain 1: CFPKVLSDDMKKLK
chain 2: MPRDNMASLIQRIARQACLTFRGSGGGRGASDRDAASGPEAPMQPGFPENLSKLKSLLTQLRAEDLNIAPRKATLQPLPPNLPPVTYMHIYETDGFSLGVFLLKSGTSIPLHDHPGMHGMLKVLYGTVRISCMDKLDAGGGQRPRALPPEQQFEPPLQPREREAVRPGVLRSRAEYTEASGPCILTPHRDNLHQIDAVEGPAAFLDILAPPYDPDDGRDCHYYRVLEPVRPKEASSSACDLPREVWLLETPQADDFWCEGEPYPGPKVFP
B2: 2-aminoethanethiol dioxygenase (ADO), full-length human, N-terminally His-tagged and biotinylated (pQE80L-Navi-ADO) [modified: biotin (biotinylated during expression, 0.2 mM biotin added); biotin (biotinylated during … (parent)
chain 1: CKGLAALPHSCLER
chain 2: B1 chain 2

Variants of: B1
Experiment: SPR
Details: with IL32_(2-15), parent: 1, read off a plot
A ratio to parent (fold difference) of 19 was found for chain 2 MPRDNMASLIQRIARQACLTFRGSGGGRGASDRDAASGPEAPMQPGFPENLSKLKSLLTQLRAEDLNIAPRKATLQPLPPNLPPVTYMHIYETDGFSLGVFLLKSGTSIPLHDHPGMHGMLKVLYGTVRISCMDKLDAGGGQRPRALPPEQQFEPPLQPREREAVRPGVLRSRAEYTEASGPCILTPHRDNLHQIDAVEGPAAFLDILAPPFDPDDGRDCHYYRVLEPVRPKEASSSACDLPREVWLLETPQADDFWCEGEPYPGPKVFP [chain 2 Y212F] in this work. A ratio to parent (fold difference) of 60 was found for chain 2 MPRDNMASLIQRIARQACLTFRGSGGGRGASDRDAASGPEAPMQPGFPENLSKLKSLLTQLRAEDLNIAPRKATLQPLPPNLPPVTYMHIYETDGFSLGVFLLKSGTSIPLHDHPGMHGMLKVLYGTVRISCMDKLDAGGGQRPRALPPEQQFEPPLQPREREAVRPGVLRSRAEYTEASGPCILTPHRDNLHQIDAVEGPAAFLDILAPPADPDDGRDCHYYRVLEPVRPKEASSSACDLPREVWLLETPQADDFWCEGEPYPGPKVFP [chain 2 Y212A] in this work. A ratio to parent (fold difference) of -7 was found for chain 2 MPRDNMASLIQRIARQACLTFRGSGGGRGASDRDAASGPEAPMQPGFPENLSKLKSLLTQLRAEDLNIAPRKATLQPLPPNLPPVTYMHIYETDGFSLGVFLLKSGTSIPLHDHPGMHGMLKVLYGTVRISCMDKLDAGGGQRPRALPPEQQFEPPLQPREREAVRPGVLRSRAEYTEASGPCILTPHRDNLHQIDAVEGPAAFLNILAPPYDPDDGRDCHYYRVLEPVRPKEASSSACDLPREVWLLETPQADDFWCEGEPYPGPKVFP [chain 2 D206N] in this work.

Variants of: B2
Experiment: SPR
Details: with RGS5_(2-15), parent: 1, read off a plot
A ratio to parent (fold difference) of -4 was found for chain 2 MPRDNMASLIQRIARQACLTFRGSGGGRGASDRDAASGPEAPMQPGFPENLSKLKSLLTQLRAEDLNIAPRKATLQPLPPNLPPVTYMHIYETDGFSLGVFLLKSGTSIPLHDHPGMHGMLKVLYGTVRISCMDKLDAGGGQRPRALPPEQQFEPPLQPREREAVRPGVLRSRAEYTEASGPCILTPHRDNLHQIDAVEGPAAFLNILAPPYDPDDGRDCHYYRVLEPVRPKEASSSACDLPREVWLLETPQADDFWCEGEPYPGPKVFP [chain 2 D206N] in this work. A ratio to parent (fold difference) of 110 was found for chain 2 MPRDNMASLIQRIARQACLTFRGSGGGRGASDRDAASGPEAPMQPGFPENLSKLKSLLTQLRAEDLNIAPRKATLQPLPPNLPPVTYMHIYETDGFSLGVFLLKSGTSIPLHDHPGMHGMLKVLYGTVRISCMDKLDAGGGQRPRALPPEQQFEPPLQPREREAVRPGVLRSRAEYTEASGPCILTPHRDNLHQIDAVEGPAAFLDILAPPADPDDGRDCHYYRVLEPVRPKEASSSACDLPREVWLLETPQADDFWCEGEPYPGPKVFP [chain 2 Y212A] in this work. A ratio to parent (fold difference) of 39 was found for chain 2 MPRDNMASLIQRIARQACLTFRGSGGGRGASDRDAASGPEAPMQPGFPENLSKLKSLLTQLRAEDLNIAPRKATLQPLPPNLPPVTYMHIYETDGFSLGVFLLKSGTSIPLHDHPGMHGMLKVLYGTVRISCMDKLDAGGGQRPRALPPEQQFEPPLQPREREAVRPGVLRSRAEYTEASGPCILTPHRDNLHQIDAVEGPAAFLDILAPPFDPDDGRDCHYYRVLEPVRPKEASSSACDLPREVWLLETPQADDFWCEGEPYPGPKVFP [chain 2 Y212F] in this work.
